Values of other authors as cited in publication PMC5437010.

Target: factor XIa (Homo sapiens) (UniProt P03951)
Sequence of UniProt P03951 (P03951 388-625): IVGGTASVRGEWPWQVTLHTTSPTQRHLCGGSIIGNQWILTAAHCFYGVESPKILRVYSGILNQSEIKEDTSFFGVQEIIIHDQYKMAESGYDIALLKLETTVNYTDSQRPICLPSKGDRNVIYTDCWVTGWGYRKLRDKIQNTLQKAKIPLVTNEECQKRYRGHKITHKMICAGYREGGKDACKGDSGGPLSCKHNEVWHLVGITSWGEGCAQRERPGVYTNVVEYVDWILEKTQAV

- Ki: 0.4 nM
Substance: KPI KPI (from UniProt P05067)
